According to patent US20200129630A1, “METHODS FOR TREATING CANCER” (BicycleRD Limited, priority 2018, published 2020):
Read-outs that look alike come from different tables or passages of the source. Numbered stars: 1 amine (or outer) side, 2 acyl side, 3 side chain; on linkers, the order of the positions; unused ones are H or OH. Bridge positions count the residues as written; N and C are the ends. Square brackets hold non-standard residues; d marks the D form. Peptide text beside a SMILES is read from it. * marks the point of attachment. X1 = COc1cc2cc(c1Cl)N(C)C(=O)C[C@H](OC(=O)[C@H](C)N(C)C(=O)CCSSC(C)CCC(=O)*)[C@]1(C)O[C@H]1[C@H](C)[C@@H]1C[C@@](O)(NC(=O)O1)[C@H](OC)/C=C/C=C(\C)C2; 1Nal = N[C@@H](Cc1cccc2ccccc12)C(=O)O; TBMB = c1c(C[*:1])cc(C[*:3])cc1C[*:2]; Tle = CC(C)(C)[C@H](N)C(=O)O; βAla = NCCC(=O)O; Sar = CNCC(=O)O

Legend:
SNU-16 = assay: In vitro cytotoxicity (CellTiter-Glo) SNU-16; type: cell-based; settings: SNU-16, Gastric
Excerpt: (§1) Table 1 and Table 2 Notes: in general regression and stable disease correlated with the in vitro cytotoxicity and MT1-MMP expression. Female BALB/c mice n=3/group animals dosed twice per week except EBC-1 three per week. Tumor growth inhibition (TGI) (%)=[1−(Ti−T0)/(Vi−V0)]×100; Ti is the average tumor volume of a treatment group on a given day, TO is the average tumor volume of the treatment group on the day of treatment start, Vi is the average tumor volume of vehicle control group on the same day with Ti, and V0 is the average tumor volume of vehicle group on the day of treatment start. A one-way ANOVA was performed to compare tumor volume among groups, and when a significant F-statistics (a ratio of treatment variance to the error variance) was obtained, comparisons between groups were carried out with Games-Howell test. All data were analyzed using GraphPad Prism.* p<0.05, ** p<0.01, *** p<0.001. In vitro cytotoxicity was measured by CellTiter-Glo®, MT1-MMP membrane H score from immunohistochemistry staining, NM not measured. Tumor size on Day 1 of dosing.

[1] = GLP-compliant 28-day repeat dose toxicity study, rat; type: in vivo
Method: In a GLP-compliant study in Cynomolgus monkeys, the highest non-severely toxic dose (HNSTD) of BT1718 was established to be 18 mg/m^2 administered twice weekly, equivalent to a human dose of 0.48 mg/kg. In a GLP-compliant study in the rat, the MTD was not reached with the highest administered dose 6 mg/m^2 twice weekly. At this dose level, there was kidney toxicity (with no effect on clinical condition) and also testicular toxicity. After 28 days off-dose, there was evidence of partial recovery of kidney-related findings, but no recovery of testicular effects at this dose level. […] Therefore, the MTD for rat for twice weekly dosing was considered to be between 1 and 1.5 mg/kg.

[2] = Stability in plasma in vitro, human; type: in vitro ADME; settings: 37° C.
Method: (§2) The stability of BT1718 was assessed in plasma and whole blood from humans, monkey, dog, mouse and rat. […] The mechanism for the difference in stability of the BT1718 peptide in whole blood between the different species is unknown.

[3] = Stability in plasma in vitro, mouse; type: in vitro ADME; settings: 37° C.
Method: as §2

[4] = Wistar Han rat GLP study toxicokinetics; type: in vivo; settings: plasma, Day 1 male; for Cmax: read-out: C0/Cmax
Excerpt: In a repeat dose experiment with BT1718 no significant gender-related differences in the TK parameters for the rat or monkey were noted. Exposure in both the rat and monkey increased approximately linearly with dose and was maintained for 28 days on repeat dosing. […] Plasma clearance and volume of distribution were similar across BT1718 dose and consistent with the PK studies.

[5] = Stability in plasma in vitro, monkey; type: in vitro ADME; settings: 37° C.
Method: as §2

MDA-MB-231 = assay: In vitro cytotoxicity (CellTiter-Glo) MDA-MB-231; type: cell-based; settings: MDA-MB-231, Breast
Excerpt: as §1

MOLP-8 = assay: In vitro cytotoxicity (CellTiter-Glo) MOLP-8; type: cell-based; settings: MOLP-8, Myeloma
Excerpt: as §1

[6] = rat GLP, 1 mg/kg (6 mg/m^2) twice weekly
[7] = rat GLP, males 1 mg/kg (6 mg/m^2) twice weekly
[8] = 1.2 mg/m2, Wister Han rats GLP, 1.2 mg/m^2 IV
[9] = 3 mg/m2, Wister Han rats GLP, 3 mg/m^2 IV
[10] = 6 mg/m2, Wister Han rats GLP, 6 mg/m^2 IV

COc1cc2cc(c1Cl)N(C)C(=O)C[C@H](OC(=O)[C@H](C)N(C)C(=O)CCSSC(C)CCC(=O)NCCC(=O)N(C)CC(=O)N(C)CC(=O)N(C)CC(=O)N(C)CC(=O)N(C)CC(=O)N(C)CC(=O)N(C)CC(=O)N(C)CC(=O)N(C)CC(=O)N(C)CC(=O)N[C@@H](C)C(=O)N[C@H]1CSCc3cc4cc(c3)CSC[C@H](NC(=O)[C@@H](C)NC(=O)[C@H](Cc3cccc5ccccc35)NC(=O)[C@H](CCC(=O)O)NC(=O)[C@H](CC(N)=O)NC(=O)[C@@H](C)NC1=O)C(=O)N[C@@H](CCC(=O)O)C(=O)N[C@@H](CC(=O)O)C(=O)N[C@@H](Cc1ccccc1)C(=O)N[C@@H](Cc1ccc(O)cc1)C(=O)N[C@@H](CC(=O)O)C(=O)N[C@@H](C(C)(C)C)C(=O)N[C@H](C(N)=O)CSC4)[C@]1(C)O[C@H]1[C@H](C)[C@@H]1C[C@@](O)(NC(=O)O1)[C@H](OC)/C=C/C=C(\C)C2 (stereo partly shown) [BT1718] ({X1-βAla}-[Sar][Sar][Sar][Sar][Sar][Sar][Sar][Sar][Sar][Sar]AC[dA]NE[1Nal][dA]CEDFYD[Tle]C-NH2; linker 12-18-25 via TBMB (inferred))
IC50 (SNU-16): 19.5 nM | GI-related findings ([1]; GLP rat): No GI-related findings | bladder changes ([1]; GLP rat): No bladder changes | MTD ([1]; GLP rat, highest administered dose 6 mg/m^2 twice weekly): not reached | MTD at 28 day ([1]; in vivo, intravenous, considered from GLP and non-GLP rat studies, read-out: MTD for rat for twice weekly dosing): 1 to 1.5 mg/kg | anti-drug antibodies (ADAs) in serum ([1]; rat 28-day GLP study): negative | hepatic findings ([1]; rat GLP 28 day, 1 mg/kg (6 mg/m^2) twice weekly): minimal to slight reversible hepatocellular atrophy | raised ALP, AST and cholesterol, from control values ([1]; rat GLP 28 day, 1 mg/kg twice weekly): ≤ 1.5 × | erythrocyte parameters, maximum drop [1, 6]: 0.64 × | increase in platelets, maximum [1, 6]: 2.3 × | reduction in reticulocytes ([1]; rat GLP, 1 mg/kg (6 mg/m^2) twice weekly, females): 0.37 × | reduction in reticulocytes ([1]; rat GLP, 1 mg/kg (6 mg/m^2) twice weekly, males): 0.06 × | reproductive organ findings ([1]; rat GLP, all males 1 mg/kg (6 mg/m^2) twice weekly): testicular degeneration/atrophy of the seminiferous tubules and the absence of sperm | incidence of minimal hypertrophy of the zona glomerulosa ([1]; rat GLP, females 1 mg/kg (6 mg/m^2) twice weekly): 5 of 10 | incidence of minimal hypertrophy of the zona glomerulosa ([1]; rat GLP, males 0.2 mg/kg (1.2 mg/m^2) twice weekly): 2 of 10 | incidence of minimal hypertrophy of the zona glomerulosa ([1]; rat GLP, males 0.5 mg/kg (3 mg/m^2) twice weekly): 3 of 10 | adrenal gland terminal weights [1, 7]: significantly lower terminal weights | incidence of minimal hypertrophy of the zona glomerulosa [1, 7]: 4 of 10 | onset dose of renal tubular epithelial degeneration ([1]; rat GLP, twice weekly): 0.2 mg/kg | axonal degeneration ([1]; rat study): not observed | half-life [2]: > 360 min | half-life [3]: > 300 min | AUC [4, 8]: 0.09 µM·h | Cmax [4, 8]: 80 nM | AUC [4, 9]: 0.46 µM·h | Cmax [4, 9]: 590 nM | AUC [4, 10]: 0.85 µM·h | Cmax [4, 10]: 1020 nM | half-life [5]: > 300 min | IC50 (MDA-MB-231): 39.8 nM | IC50 (MOLP-8): 141 nM
